According to PMC5707514:

Molecular target: Aβ(M1-42) (UniProt P05067)
Test: fibrils trapped on a 0.2 μm filter, tryptic digest and MALDI-TOF MS; 1:1 mixture of ^15N-Aβ42 and ^14N-Aβ40 monomers, 3 μM total, 5 μM ThT, 37 °C; samples taken at the first and second ThT plateau, fibrils washed with Milli-Q water

Chain of Aβ(M1-42) (P05067 671-713): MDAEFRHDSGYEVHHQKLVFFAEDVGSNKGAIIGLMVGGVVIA

Substance: Aβ(M1-40) (from UniProt P05067 672-711) (peptide)
- percent of Aβ40 contained in the fibrils at the first plateau: < 13%
